Data taken from article PMC5025751.

What was measured:
[1] = target: Actin purified from rabbit skeletal muscle (F-actin filaments) (rabbit) (UniProt P68135); assay: transient kinetics, quenching of pyrene-actin fluorescence; myosin rapidly mixed with MgATP, then with pyrene-labelled actin (0-50 uM; single filaments or fascin bundles) with high MgADP to stop further cycling
[2] = target: Fascin-bundled F-actin filaments (rabbit | not stated) (UniProt P68135); assay: as above
[3] = target: myosin X anti-parallel coiled-coil (Homo sapiens) (UniProt Q9HD67); details: cited from earlier work

Substance | rate of pyrene-actin fluorescence quenching [1] | rate of pyrene-actin fluorescence quenching [2] | Kd [3]
MyoX-HMM-A938 (truncated human Myo10 HMM, amino acids 1-938, 19 amino-acid linker, Leucine zipper, AVI tag, Flag tag) (from UniProt Q9HD67 1-938; P0DP23 1-149) (complex) | 19 s⁻¹ | 34 s⁻¹ | –
myosin X anti-parallel coiled-coil (from UniProt Q9HD67) | – | – | 0.6 µM
Human myosin X MD-3IQ-SAH (S1, truncated at Gln 851) (from UniProt Q9HD67 1-851; P0DP23 1-149) (complex) | 18 s⁻¹ | 17 s⁻¹ | –
